Experimental findings from patent US20260274955A1 (JANUX THERAPEUTICS, published 2026) are described below.

No end group written: not given here.
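For Octet signal in this document: association and dissociation phases tracked in real time, with kinetics fitted to a 1:1 interaction model.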
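For t1/2 in this document: association and dissociation phases tracked in real time, with kinetics fitted to a 1:1 interaction model.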

For one assay, the target named is T1, Ab-1.
T1 construct: also called anti-CD28 scFv harbored in Ab-1
Put plainly: BLI (Octet), 200 nM peptide, 100 nM Ab-1. (Biolayer interferometry detects binding as a change in optical thickness at a sensor tip.)
YDWCPRDLWVHCFA (cysteine pairing not given here; also: biotinylated, site not given here) [Peptide-18] returned an Octet signal of 0.849 and a t1/2 of 2.9 min.
Take VDWCPRDLWVHCFA (cysteine pairing not given here; also: biotinylated, site not given here) [Peptide-19]: the Octet signal was 0.919 and the t1/2 is 2.9 min.

Another assay addresses T1, Ab-1. The assay is described as follows: binding ELISA, peptide captured, Ab-1 titrated. A general note: An ELISA detects its analyte on a solid surface through an enzyme-linked reagent.
As usually defined, the EC50 is the concentration needed to bring the measured effect to its halfway point. In turn, YDWCPRDLWVHCFA (cysteine pairing not given here; also: biotinylated, site not given here) [Peptide-18] displayed an EC50 of 32.2 nM.
Regarding VDWCPRDLWVHCFA (cysteine pairing not given here; also: biotinylated, site not given here) [Peptide-19], the EC50 amounted to 32.5 nM.

A further assay has as its target T2, anti-CD28 Fab (SEQ ID NOs: 202, 203).
T2 construct: biotinylated when captured in the phage ELISAs
Put plainly: binding ELISA, peptide captured, anti-CD28 Fab titrated.
The molecule LCAAGASWPWPVCL (cysteine pairing not given here; also: biotinylated, site not given here) [Peptide-90] gave an EC50 of 13.1 nM.
With TCSAGATWPWPICL (cysteine pairing not given here; also: biotinylated, site not given here) [Peptide-89], the EC50 worked out at 2.1 nM.
With LCAAGATYPWPLCL (cysteine pairing not given here; also: biotinylated, site not given here) [Peptide-96], the EC50 came to 5.6 nM.
On the same count and under the same terms, the result for LCAAGATYPWPTCL (cysteine pairing not given here; also: biotinylated, site not given here) [Peptide-99] reads 25.8 nM; that for TCSAGASYPWPLCL (cysteine pairing not given here; also: biotinylated, site not given here) [Peptide-91], 5.3 nM; that for TCSAGAAYPWPLCL (cysteine pairing not given here; also: biotinylated, site not given here) [Peptide-97], 4.4 nM.
With SCSAGAHYPWPQCF (cysteine pairing not given here; also: biotinylated, site not given here) [Peptide-100], the EC50 was found to be 19 nM.
On the same count and under the same terms, under TCAAGAAWGWPLCF (cysteine pairing not given here; also: biotinylated, site not given here) [Peptide-95] stands 5.6 nM; under TCSAGATYEWPRCL (cysteine pairing not given here; also: biotinylated, site not given here) [Peptide-101], 12.8 nM; under TCAAGAAWPWPQCL (cysteine pairing not given here; also: biotinylated, site not given here) [Peptide-92], 2.6 nM.
TCAAGATWSWPACF (cysteine pairing not given here; also: biotinylated, site not given here) [Peptide-94] came in with an EC50 of 4.5 nM.
As to TCSAGATYTWPKCF (cysteine pairing not given here; also: biotinylated, site not given here) [Peptide-93], the EC50 turned out to be 15.7 nM.
Regarding TCSAGAAYSWPACF (cysteine pairing not given here; also: biotinylated, site not given here) [Peptide-98], the response was half-maximal at 24.3 nM (EC50).

Another assay deals with T1, Ab-1. Put plainly: competition ELISA, peptide titrated vs 1 nM Ab-1 binding plate-bound CD28.
The term IC50 denotes the point on the concentration scale where inhibition reaches its midpoint. In turn, YDWCPRDLWVHCFA (cysteine pairing not given here; also: biotinylated, site not given here) [Peptide-18] gave an IC50 of 3250 nM.
With VDWCPRDLWVHCFA (cysteine pairing not given here; also: biotinylated, site not given here) [Peptide-19], the IC50 is 4420 nM.
